The values that follow are results of earlier work, collected in paper PMC7615502.

For data set [1], the target named is IL-2Rα (Homo sapiens) (UniProt P01589).
Data set [2] deals with IL-2Rβγ (Homo sapiens) (UniProt P14784).
UniProt P14784, sequence (P14784 27-240, chain 1 of 2): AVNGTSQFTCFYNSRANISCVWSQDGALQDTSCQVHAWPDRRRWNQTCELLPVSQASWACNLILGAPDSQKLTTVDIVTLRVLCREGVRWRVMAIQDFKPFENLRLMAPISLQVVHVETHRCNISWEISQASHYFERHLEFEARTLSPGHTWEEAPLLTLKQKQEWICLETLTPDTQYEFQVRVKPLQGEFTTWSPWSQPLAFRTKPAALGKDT
UniProt P14784, sequence (P31785 23-262, chain 2 of 2, further chain): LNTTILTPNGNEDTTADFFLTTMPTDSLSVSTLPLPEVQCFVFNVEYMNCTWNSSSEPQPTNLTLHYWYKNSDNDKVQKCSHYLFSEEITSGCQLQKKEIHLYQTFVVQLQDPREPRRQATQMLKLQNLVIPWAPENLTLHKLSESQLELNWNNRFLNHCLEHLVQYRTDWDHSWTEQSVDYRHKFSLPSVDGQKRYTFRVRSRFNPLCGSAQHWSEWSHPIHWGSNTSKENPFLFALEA

UniProt P01589, sequence (P01589 22-240): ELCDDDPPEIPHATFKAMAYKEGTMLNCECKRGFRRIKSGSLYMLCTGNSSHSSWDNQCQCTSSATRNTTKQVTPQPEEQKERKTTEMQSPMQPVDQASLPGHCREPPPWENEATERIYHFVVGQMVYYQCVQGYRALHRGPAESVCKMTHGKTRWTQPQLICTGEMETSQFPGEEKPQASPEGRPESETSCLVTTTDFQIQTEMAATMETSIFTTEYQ

Broadly, the Kd is a measure of binding affinity in units of concentration. For the substance IL-2 (from UniProt P60568), the values for the Kd in data set [1] and in data set [2] were 10 nM and 1 nM, respectively.
